According to doi:10.1101/2020.04.16.045674:
Like-named read-outs stand apart in the source and are kept apart here.

Assays:
[1] = target: NaChBac (Bacillus halodurans); assay: cryo-EM structure
[2] = target: NaChBac (Bacillus halodurans); assay: cryo-EM structure; remark: listed apart in the source

stoichiometry N [1]: 4 | stoichiometry N [2]: 4
Substance: NaChBac (natural protein)
